Biological target: the molecule itself
Assay: crystal structure

B1: Thermoanaerobacter brockii Can2 E341A mutant (TbrCan2^E341A), catalytically inactive (enzyme)
chain: MNEKVLVLIVGTNPLPNYVVGSHLKEKYDKFVLIYSEKNDKINQNSTYDYAKKLKEHLNLNDKCIFLPLSDVSNSEKIINDLREKFPSEDFVEVHLNYTGGTKTMVVHIYNFLKEKFKNNKIKFEGSYLDARDYKLVYDYSEEAISLKDTIKIDINTLLSIHLYEDIHFEFYDTYSYKQKFVDSFDKISQEIEKAIKDDKGEDFVKWLEDPFRKIFKGENKLLEKTAKFKKHIEKLLKDNDSSPIVKFNEKTPQFIWDILNAFPEGKKLNDGQKLWIPDDKITNDNLSSRVKDTVEFLNGKWFEWYVYSQIKSELLDRKLKEGEHFGISLKAQKKDSPYFALDIFLINGYQLIGISLTTSSTRELCKLKGFEVIHRVRQIGGDESKAILITGMDKSKTEDLQKDLAYETGSTQKRFVVFGIDDWADIGSKICEEVFK
- stoichiometry N: 2
